Laboratory results from article PMC9882600, “Asymmetric gating of a human hetero-pentameric glycine receptor” (Research Square, 2023).

Legend:
[1] = biological target: human glycine receptor β subunit, cryo-EM construct βem (human) (UniProt P48167); experiment: cryo-EM structure; α1emβem GlyR co-expressed and purified as a complex, 6 mg/ml in 20 mM Tris pH 8.0, 200 mM NaCl, 0.06% digitonin; vitrified without ligand (apo) or after 1 h with 2 mM glycine on ice (open, expanded-open, desensitized classes); ~3 mM fluorinated fos-choline 8 added before freezing
[2] = biological target: the molecule itself; experiment: as above

Sequence of human glycine receptor β subunit, cryo-EM construct βem (human) (P48167 23-497): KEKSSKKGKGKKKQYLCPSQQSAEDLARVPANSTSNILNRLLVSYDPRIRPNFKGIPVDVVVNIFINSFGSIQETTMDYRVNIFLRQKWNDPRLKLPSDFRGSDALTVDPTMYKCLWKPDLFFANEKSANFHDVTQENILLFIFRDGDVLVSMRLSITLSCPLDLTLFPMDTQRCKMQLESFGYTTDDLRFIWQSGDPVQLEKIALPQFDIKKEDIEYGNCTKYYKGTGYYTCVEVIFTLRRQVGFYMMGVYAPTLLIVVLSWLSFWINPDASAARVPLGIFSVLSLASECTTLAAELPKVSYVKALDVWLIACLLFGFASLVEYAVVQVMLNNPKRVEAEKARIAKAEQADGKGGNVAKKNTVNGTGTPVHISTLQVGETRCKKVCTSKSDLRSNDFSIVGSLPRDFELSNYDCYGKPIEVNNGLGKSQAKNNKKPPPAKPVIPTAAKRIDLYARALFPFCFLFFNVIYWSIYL

B1: human glycine receptor α1 subunit, cryo-EM construct α1em (receptor)
chain: ARSAPKPMSPSDFLDKLMGRTSGYDARIRPNFKGPPVNVSCNIFINSFGSIAETTMDYRVNIFLRQQWNDPRLAYNEYPDDSLDLDPSMLDSIWKPDLFFANEKGAHFHEITTDNKLLRISRNGNVLYSIRITLTLACPMDLKNFPMDVQTCIMQLESFGYTMNDLIFEWQEQGAVQVADGLTLPQFILKEEKDLRYCTKHYNTGKFTCIEARFHLERQMGYYLIQMYIPSLLIVILSWISFWINMDAAPARVGLGITTVLTMTTQSSGSRASLPKVSYVKAIDIWMAVCLLFVFSALLEYAAVNFVSRQHKELLGSSGEEMRKLFIQRAKKIDKISRIGFPMAFLIFNMFYWIIYKIVRREDVHNQ
notes: glycine receptor α1 subunit, human, NCBI NP_001139512.1; residues before the M3/M4 loop stretch R316-P381 that was replaced by GSSG; the lists of unbuilt residues begin at A1 and give 367 aa in total; linker that replaces the M3/M4 loop residues R316-P381; residues after the replaced M3/M4 loop stretch, to Q429 (last residue named in the lists of unbuilt residues); Four copies stand in the …
stoichiometry N [1]: 4 α1:β
binding result [2]: binds
